Laboratory results as given in patent US7306904.

Molecular target: soluble PDGF-alpha receptor (UniProt P16234)
Assay: proximity ligation competition assay in solution: 100 nM PDGF-AA added to 6.4 pM PDGF-BB, 2.5 nM soluble PDGF-alpha receptor and 5 pM aptamer probes; the signal comes from PDGF-BB displaced from the receptor, compared with no PDGF-AA

Sequence of UniProt P16234 (P16234 24-524 limits assumed): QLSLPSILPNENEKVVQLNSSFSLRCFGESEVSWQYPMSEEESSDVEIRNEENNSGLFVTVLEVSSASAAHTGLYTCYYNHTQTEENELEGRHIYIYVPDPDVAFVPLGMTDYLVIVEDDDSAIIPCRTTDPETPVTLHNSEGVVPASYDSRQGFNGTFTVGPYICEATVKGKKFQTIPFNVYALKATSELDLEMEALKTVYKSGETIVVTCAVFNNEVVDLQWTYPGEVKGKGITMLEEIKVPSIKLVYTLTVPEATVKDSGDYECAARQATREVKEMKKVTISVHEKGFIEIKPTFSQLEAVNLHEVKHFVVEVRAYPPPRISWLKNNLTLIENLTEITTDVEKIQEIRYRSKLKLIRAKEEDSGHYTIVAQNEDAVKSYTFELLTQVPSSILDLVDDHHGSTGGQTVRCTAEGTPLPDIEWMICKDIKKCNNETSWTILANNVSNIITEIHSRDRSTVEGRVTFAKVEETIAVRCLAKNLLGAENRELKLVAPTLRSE

With “PDGF-AA (from UniProt P04085 87-211) (ligand)” the fold increase in signal was 3 fold.
